Assay [1] concerns the target mouse DLL3 expressed on CHO cells (mouse) (UniProt O88516). The experiment in a line: flow cytometry, 10 ug/ml AMG 757 on CHO muDLL3 cells, anti-human IgG Fc-APC. (In general: In flow cytometry, cells or beads pass a laser one at a time.)
In assay [2] the target is human FLT3 expressed on CHO cells (human) (UniProt P36888). The experiment in a line: flow cytometry, 10 ug/ml AMG 757 on CHO huFTL3 (negative control) cells, anti-human IgG Fc-APC.
Assay [3] deals with rat DLL3 expressed on CHO cells (rat) (UniProt O88671). The experiment in a line: flow cytometry, 10 ug/ml AMG 757 on High CHO rtDLL3 cells, anti-human IgG Fc-APC.
Assay [4] has the same target. The experiment in a line: flow cytometry, 10 ug/ml AMG 757 on Low CHO rtDLL3 cells, anti-human IgG Fc-APC.
Assay [5] deals with human DLL3 expressed on the surface of cells (human) (UniProt Q9NYJ7). The assay is described as follows: flow cytometry, 10 ug/ml AMG 757 on CHO huDLL3 cells, anti-human IgG Fc-APC.
In assay [6] the target is cynomolgus monkey DLL3 expressed on CHO cells (cynomolgus monkey). The experiment in a line: flow cytometry, 10 ug/ml AMG 757 on CHO cynoDLL3 cells, anti-human IgG Fc-APC.
Chain of cynomolgus monkey DLL3 expressed on CHO cells (cynomolgus monkey) (chain, as listed by the source, form in doubt): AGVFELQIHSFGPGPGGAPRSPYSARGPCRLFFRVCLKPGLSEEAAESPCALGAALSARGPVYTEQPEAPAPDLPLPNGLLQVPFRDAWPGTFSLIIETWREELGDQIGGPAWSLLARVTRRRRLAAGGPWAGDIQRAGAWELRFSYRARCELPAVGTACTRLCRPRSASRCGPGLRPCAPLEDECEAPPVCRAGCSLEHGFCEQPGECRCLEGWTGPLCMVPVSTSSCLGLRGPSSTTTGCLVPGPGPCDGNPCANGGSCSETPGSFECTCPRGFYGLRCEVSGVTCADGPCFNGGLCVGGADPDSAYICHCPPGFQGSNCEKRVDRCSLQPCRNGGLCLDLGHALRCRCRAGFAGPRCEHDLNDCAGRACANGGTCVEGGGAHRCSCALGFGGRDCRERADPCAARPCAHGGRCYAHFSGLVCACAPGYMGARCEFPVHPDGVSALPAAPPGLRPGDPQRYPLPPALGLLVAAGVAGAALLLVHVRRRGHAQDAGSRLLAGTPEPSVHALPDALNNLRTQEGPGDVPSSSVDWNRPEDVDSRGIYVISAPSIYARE

Chain of rat DLL3 expressed on CHO cells (rat) (O88671 33-589): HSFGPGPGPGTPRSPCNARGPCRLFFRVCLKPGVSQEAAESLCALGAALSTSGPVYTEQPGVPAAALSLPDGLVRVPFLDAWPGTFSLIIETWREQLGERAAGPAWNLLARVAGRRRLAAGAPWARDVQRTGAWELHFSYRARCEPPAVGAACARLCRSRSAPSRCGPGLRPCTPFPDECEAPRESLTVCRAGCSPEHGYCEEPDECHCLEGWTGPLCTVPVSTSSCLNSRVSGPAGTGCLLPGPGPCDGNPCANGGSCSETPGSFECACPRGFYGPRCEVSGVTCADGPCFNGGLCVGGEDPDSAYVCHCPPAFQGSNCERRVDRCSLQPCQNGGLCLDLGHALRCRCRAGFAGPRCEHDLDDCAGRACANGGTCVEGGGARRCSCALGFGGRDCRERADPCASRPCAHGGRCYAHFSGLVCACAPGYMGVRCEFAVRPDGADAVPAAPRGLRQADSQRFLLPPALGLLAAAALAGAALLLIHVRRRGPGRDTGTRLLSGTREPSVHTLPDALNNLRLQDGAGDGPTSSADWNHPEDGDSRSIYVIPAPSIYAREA
Chain of human DLL3 expressed on the surface of cells (human) (Q9NYJ7 27-618 limits assumed): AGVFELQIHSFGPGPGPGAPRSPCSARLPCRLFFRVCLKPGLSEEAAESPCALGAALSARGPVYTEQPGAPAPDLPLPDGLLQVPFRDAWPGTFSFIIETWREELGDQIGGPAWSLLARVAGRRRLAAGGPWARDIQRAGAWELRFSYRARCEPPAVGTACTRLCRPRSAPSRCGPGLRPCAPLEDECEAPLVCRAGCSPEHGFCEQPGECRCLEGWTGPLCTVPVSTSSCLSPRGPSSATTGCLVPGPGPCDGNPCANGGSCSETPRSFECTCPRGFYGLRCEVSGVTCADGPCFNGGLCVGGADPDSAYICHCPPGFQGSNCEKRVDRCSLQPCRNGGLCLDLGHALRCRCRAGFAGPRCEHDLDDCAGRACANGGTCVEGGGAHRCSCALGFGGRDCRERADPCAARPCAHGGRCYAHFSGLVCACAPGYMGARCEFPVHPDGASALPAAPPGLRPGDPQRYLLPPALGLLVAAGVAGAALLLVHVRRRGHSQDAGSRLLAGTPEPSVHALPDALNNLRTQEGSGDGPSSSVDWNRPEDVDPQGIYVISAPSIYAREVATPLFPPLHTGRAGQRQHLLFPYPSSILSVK
Chain of mouse DLL3 expressed on CHO cells (mouse) (O88516 33-592): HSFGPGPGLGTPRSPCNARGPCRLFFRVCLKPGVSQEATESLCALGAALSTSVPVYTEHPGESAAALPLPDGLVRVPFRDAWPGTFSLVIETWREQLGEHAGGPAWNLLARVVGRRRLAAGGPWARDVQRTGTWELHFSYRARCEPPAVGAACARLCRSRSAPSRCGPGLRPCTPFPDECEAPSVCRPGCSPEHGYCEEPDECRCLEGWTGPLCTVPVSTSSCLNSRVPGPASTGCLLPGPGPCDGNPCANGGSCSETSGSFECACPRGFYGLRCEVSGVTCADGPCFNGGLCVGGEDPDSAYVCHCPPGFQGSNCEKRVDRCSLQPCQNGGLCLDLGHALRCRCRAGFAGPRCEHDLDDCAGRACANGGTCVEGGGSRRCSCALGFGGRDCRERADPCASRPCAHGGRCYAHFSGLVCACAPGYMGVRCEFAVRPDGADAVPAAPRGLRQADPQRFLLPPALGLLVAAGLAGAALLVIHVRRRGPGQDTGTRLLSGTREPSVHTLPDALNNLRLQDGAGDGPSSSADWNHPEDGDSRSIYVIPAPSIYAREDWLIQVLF

For the substance AMG 757 (bispecific antibody), the DLL3 positive cells (%) came to 99.5% in assay [1]; 3.3% in assay [2]; 98.6% in assay [3]; 98.6% in assay [4]; 99.7% in assay [5]; 98.4% in assay [6].
